The record followed here is publication PMC9130954.

In assay [1] the target is Photosystem I (PSI) complex from Anabaena sp. PCC 7120, the monomeric unit of the PSI oligomers (Anabaena sp. PCC 7120 (endogenous)) (UniProt P58576). As to the kind of experiment: negative staining EM, single-particle 2D class averaging; purified supercomplex 2 sample, 0.27 mg/ml, 0.75% uranyl formate, 120 kV; 822 particles; PSI tetramer models rigidly fitted over the 2D map.

For assay [2] the target is unchanged. Nature of the assay: negative staining EM, single-particle 2D class averaging; purified supercomplex 1 sample, 0.19 mg/ml, 0.75% uranyl formate, 120 kV; 2,518 particles; PSI tetramer and dimer models rigidly fitted over the 2D map.
For assay [3] the target is unchanged. Nature of the assay: negative staining EM, single-particle 2D class averaging; purified PSI tetramer sample, 0.15 mg/ml, 0.75% uranyl formate, 120 kV; 359 particles; PSI tetramer structure as reference.
Assay [4] shares this target. Nature of the assay: cryo-EM structure; PSI supercomplex 2 purified by BN-PAGE and re-extraction (buffer A with 0.03% digitonin), about 2.5 mg/ml, fos-choline-8 at 1.0 mM added before blotting; single-particle map at 7.0 Å overall, no symmetry (C1); published PSI dimer (PDB 6K61) and tetramer (PDB 6TCL) models fitted as rigid bodies.

The term stoichiometry N denotes the number of molecules, sites or subunits per partner or assembly. As for “Photosystem I (PSI) complex from Anabaena sp. PCC 7120, the monomeric unit of the PSI oligomers (from UniProt P58576 1-752; P58565 1-741; P58564 24-164; P58583 1-86; P58577 1-172; Q8YNB0 1-32)”, the stoichiometry N in assay [1] turned out to be 8; in assay [2], 6; in assay [3], 4; in assay [4], 8.
